Molecular target: VEGF165 (UniProt P15692)
Assay: cell-based or functional assay

UniProt P15692, sequence (P15692 other isoform, or with tags, fused parts or gaps): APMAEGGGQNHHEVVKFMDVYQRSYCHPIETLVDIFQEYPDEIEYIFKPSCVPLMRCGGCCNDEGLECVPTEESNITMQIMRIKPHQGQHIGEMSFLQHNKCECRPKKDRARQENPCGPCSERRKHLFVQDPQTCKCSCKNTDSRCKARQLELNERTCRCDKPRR

Conbercept(康柏西普) (Fc fusion)
HUVEC细胞增殖抑制 EC50: 0.221 nM
